Experimental data from patent US20120058499.

Assays:
[1] = target: T1, Z-Arg-Leu-Arg-Gly-Gly (SEQ ID NO: 1)-amino-luciferin
T1 chain: RLRGG

[2] = target: ubiquitin-7-amino-4-methylcoumarin, P0CG47
[3] = target: ubiquitin-rhodamine110, P0CG47
[4] = target: hSUMO2-amino-luciferin, P61956
Chain of hSUMO2-amino-luciferin, P61956 (P61956 1-93): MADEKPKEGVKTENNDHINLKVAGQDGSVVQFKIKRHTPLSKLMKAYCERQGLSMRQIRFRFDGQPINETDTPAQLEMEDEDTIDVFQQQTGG

Chain of ubiquitin-rhodamine110, P0CG47 (P0CG47 whole entry, looked up): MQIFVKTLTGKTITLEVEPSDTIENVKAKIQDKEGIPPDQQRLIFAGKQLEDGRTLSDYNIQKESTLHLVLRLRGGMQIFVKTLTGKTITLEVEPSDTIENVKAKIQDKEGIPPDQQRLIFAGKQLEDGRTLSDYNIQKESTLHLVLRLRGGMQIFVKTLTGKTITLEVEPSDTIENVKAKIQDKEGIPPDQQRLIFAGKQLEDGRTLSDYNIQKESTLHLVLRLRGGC
Chain of ubiquitin-7-amino-4-methylcoumarin, P0CG47 (P0CG47 whole entry, looked up): as above

B1: JosD2 (protein)
chain: MSQAPGAQPSPPTVYHERQRLELCAVHALNNVLQQQLFSQEAADEICKRLAPDSRLNPHRSLLGTGNYDVNVIMAALQGLGLAAVWWDRRRPLSQLALPQVLGLILNLPSPVSLGLLSLPLRRRHWVALRQVDGVYYNLDSKLRAPEALGDEDGVRAFLAAALAQGLCEVLLVVTKEVEEKGSWLRTD
How did the Signal to Background, luminescence, DUB 10 nM (Ub(1-76)-aminoluciferin) turn out when B1 was run?
The Signal to Background, luminescence, DUB 10 nM was 760 S/B.

And the Signal to Background, luminescence, DUB 10 nM [1]?
Its Signal to Background, luminescence, DUB 10 nM is 2.1 S/B.

What about the Signal to Background, fluorescence, DUB 10 nM [2] of the same protein?
The Signal to Background, fluorescence, DUB 10 nM was 2.1 S/B.

And the Signal to Background, fluorescence, DUB 10 nM [3]?
Its Signal to Background, fluorescence, DUB 10 nM is 8.2 S/B.

B2: Otubain2 (Otub2) (protein)
chain: MSETSFNLISEKCDILSILRDHPENRIYRRKIEELSKRFTAIRKTKGDGNCFYRALGYSYLESLLGKSREIFKFKERVLQTPNDLLAAGFEEHKFRNFFNAFYSVVELVEKDGSVSSLLKVFNDQSASDHIVQFLRLLTSAFIRNRADFFRHFIDEEMDIKDFCTHEVEPMATECDHIQITALSQALSIALQVEYVDEMDTALNHHVFPEAATPSVYLLYKTSHYNILYAADKH
How did the Signal to Background, luminescence, DUB 10 nM (Ub(1-76)-aminoluciferin) turn out when B2 was run?
Its Signal to Background, luminescence, DUB 10 nM is 980 S/B.

What about the Signal to Background, luminescence, DUB 10 nM [1] of the same protein?
Its Signal to Background, luminescence, DUB 10 nM is 1.3 S/B.

And the Signal to Background, fluorescence, DUB 10 nM [2]?
The Signal to Background, fluorescence, DUB 10 nM was 1.2 S/B.

And the Signal to Background, fluorescence, DUB 10 nM [3]?
The Signal to Background, fluorescence, DUB 10 nM was 1.7 S/B.

B3: USP8 (protein)
chain: MPAVASVPKELYLSSSLKDLNKKTEVKPEKISTKSYVHSALKIFKTAEECRLDRDEERAYVLYMKYVTVYNLIKKRPDFKQQQDYFHSILGPGNIKKAVEEAERLSESLKLRYEEAEVRKKLEEKDRQEEAQRLQQKRQETGREDGGTLAKGSLENVLDSKDKTQKSNGEKNEKCETKEKGAITAKELYTMMTDKNISLIIMDARRMQDYQDSCILHSLSVPEEAISPGVTASWIEAHLPDDSKDTWKKRGNVEYVVLLDWFSSAKDLQIGTTLRSLKDALFKWESKTVLRNEPLVLEGGYENWLLCYPQYTTNAKVTPPPRRQNEEVSISLDFTYPSLEESIPSKPAAQTPPASIEVDENIELISGQNERMGPLNISTPVEPVAASKSDVSPIIQPVPSIKNVPQIDRTKKPAVKLPEEHRIKSESTNHEQQSPQSGKVIPDRSTKPVVFSPTLMLTDEEKARIHAETALLMEKNKQEKELRERQQEEQKEKLRKEEQEQKAKKKQEAEENEITEKQQKAKEEMEKKESEQAKKEDKETSAKRGKEITGVKRQSKSEHETSDAKKSVEDRGKRCPTPEIQKKSTGDVPHTSVTGDSGSGKPFKIKGQPESGILRTGTFREDTDDTERNKAQREPLTRARSEEMGRIVPGLPSGWAKFLDPITGTFRYYHSPTNTVHMYPPEMAPSSAPPSTPPTHKAKPQIPAERDREPSKLKRSYSSPDITQAIQEEEKRKPTVTPTVNRENKPTCYPKAEISRLSASQIRNLNPVFGGSGPALTGLRNLGNTCYMNSILQCLCNAPHLADYFNRNCYQDDINRSNLLGHKGEVAEEFGIIMKALWTGQYRYISPKDFKITIGKINDQFAGYSQQDSQELLLFLMDGLHEDLNKADNRKRYKEENNDHLDDFKAAEHAWQKHKQLNESIIVALFQGQFKSTVQCLTCHKKSRTFEAFMYLSLPLASTSKCTLQDCLRLFSKEEKLTDNNRFYCSHCRARRDSLKKIEIWKLPPVLLVHLKRFSYDGRWKQKLQTSVDFPLENLDLSQYVIGPKNNLKKYNLFSVSNHYGGLDGGHYTAYCKNAARQRWFKFDDHEVSDISVSSVKSSAAYILFYTSLGPRVTDVAT
What does the source list for B3?
S/B against the S/B for both Ub-AMC and Ub-Rhodamine110, enzyme 0.5 nM (Ub(1-76)-aminoluciferin): increased by ~100-fold relative to the S/B for both Ub-AMC and Ub-Rhodamine110; luminescence signal (S/B), enzyme 200 pM [4]: hSUMO2-amino-luciferin yielded virtually no signal with the DUBs USP34, USP7, and USP8 at concentrations equal to 200 pM

B4: USP34 (protein)
chain: VGLTNLGATCYLASTIQQLYMIPEARQAVFTAKYSEDMKHKTTLLELQKMFTYLMESECKAYNPRPFCKTYTMDKQPLNTGEQKDMTEFFTDLITKIEEMSPELKNTVKSLFGGVITNNVVSLDCEHVSQTAEEFYTVRCQVADMKNIYESLDEVTIKDTLEGDNMYTCSHCGKKVRAEKRACFKKLPRILSFNTMRYTFNMVTMMKEKVNTHFSFPLRLDMTPYTEDFLMGKSERKEGFKEVSDHSKDSESYEYDLIGVTVHTGTADGGHYYSFIRDIVNPHAYKNNKWYLFNDAEVKPFDSAQLASECFGGEMTTKTYDSVTDKFMDFSFEKTHSAYMLFYKRM
B4 was tested. Which “luminescence signal (S/B), enzyme 200 pM” value [4] did it give?
The value was “hSUMO2-amino-luciferin yielded virtually no signal with the DUBs USP34, USP7, and USP8 at concentrations equal to 200 pM”.

B5: UCHL5 (protein)
chain: MTGNAGEWCLMESDPGVFTELIKGFGCRGAQVEEIWSLEPENFEKLKPVHGLIFLFKWQPGEEPAGSVVQDSRLDTIFFAKQVINNACATQAIVSVLLNCTHQDVHLGETLSEFKEFSQSFDAAMKGLALSNSDVIRQVHNSFARQQMFEFDTKTSAKEEDAFHFVSYVPVNGRLYELDGLREGPIDLGACNQDDWISAVRPVIEKRIQKYSEGEIRFNLMAIVSDRKMIYEQKIAELQRQLAEEEPMDTDQGNSMLSAIQSEVAKNQMLIEEEVQKLKRYKIENIRRKHNYLPFIMELLKTLAEHQQLIPLVEKAKEKQNAKKAQETK
For B5, which Signal to Background, luminescence, DUB 10 nM [1] is on record?
Its Signal to Background, luminescence, DUB 10 nM is 1.4 S/B.

B6: SENP6 (protein)
chain: EEETGENHTIFIGPVEKLIVYPPPPAKGGISVTNEDLHCLNEGEFLNDVIIDFYLKYLVLEKLKKEDADRIHIFSSFFYKRLNQRERRNHETTNLSIQQKRHGRVKTWTRHVDIFEKDFIFVPLNEAAHWFLAVVCFPGLEKPKYEPNPHYHENAVIQKCSTVEDSCISSSASEMESCSQNSSAKPVIKKMLNKKHCIAVIDSNPGQEESDPRYKRNICSVKYSVKKINHTASENEEFNKGESTSQKVADRTKSENGLQNESLSSTHHTDGLSKIRLNYSDESPEAGKMLEDELVDFSEDQDNQDDSSDDGFLADDNCSSEIGQWHLKPTICKQPCILLMDSLRGPSRSNVVKILREYLEVEWEVKKGSKRSFSKDVMKGSNPKVPQQNNFSDCGVYVLQYVESFFENPILSFELPMNLANWFPPPRMRTKREEIRNIILKLQEDQSKEKRKHKDTYSTEAPLGEGTEQYVNSISD
B6 was tested. Which “luminescence signal (S/B), enzyme 200 pM” value [1] did it give?
The value was “Z-Arg-Leu-Arg-Gly-Gly (SEQ ID NO: 1)-amino-luciferin also gave signals with SENP2 and SENP6 (200 pM)”.

What about the “luminescence signal (S/B), enzyme 200 pM” value [4] of the same protein?
Its value is “SENP1, SENP2, and SENP6 (200 pM) on the other hand gave strong signals with hSUMO2-amino-luciferin”.

B7: Ataxin3-like (protein)
chain: MDFIFHEKQEGFLCAQHCLNNLLQGEYFSPVELASIAHQLDEEERMRMAEGGVTSEEYLAFLQQPSENMDDTGFFSIQVISNALKFWGLEIIHFNNPEYQKLGIDPINERSFICNYKQHWFTIRKFGKHWFNLNSLLAGPELISDTCLANFLARLQQQAYSVFVVKGDLPDCEADQLLQIISVEEMDTPKLNGKKLVKQKEHRVYKTVLEKVSEESDESGTSDQDEEDFQRALELSRQETNREDEHLRSTIELSMQGSSGNTSQDLPKTSCVTPASEQPKKIKEDYFEKHQQEQKQQQQQSDLPGHSSYLHERPTTSSRAIESDLSDDISEGTVQAAVDTILEIMRKNLKIKGEK
How did the Signal to Background, luminescence, DUB 10 nM (Ub(1-76)-aminoluciferin) turn out when B7 was run?
The Signal to Background, luminescence, DUB 10 nM was 120 S/B.

What about the Signal to Background, luminescence, DUB 10 nM [1] of the same protein?
Its Signal to Background, luminescence, DUB 10 nM is 1.5 S/B.

And the Signal to Background, fluorescence, DUB 10 nM [2]?
Its Signal to Background, fluorescence, DUB 10 nM is 1.1 S/B.

What about the Signal to Background, fluorescence, DUB 10 nM [3] of the same protein?
Its Signal to Background, fluorescence, DUB 10 nM is 1.6 S/B.

B8: UCHL3 (ubiquitin carboxyl-terminal hydrolase isozyme L3) (protein)
chain: MEGQRWLPLEANPEVTNQFLKQLGLHPNWQFVDVYGMDPELLSMVPRPVCAVLLLFPITEKYEVFRTEEEEKIKSQGQDVTSSVYFMKQTISNACGTIGLIHAIANNKDKMHFESGSTLKKFLEESVSMSPEERARYLENYDAIRVTHETSAHEGQTEAPSIDEKVDLHFIALVHVDGHLYELDGRKPFPINHGETSDETLLEDAIEVCKKFMERDPDELRFNAIALSAA
What does the source list for B8?
S/B against the S/B for Ub-AMC, UCHL3 0.01 nM (Ub(1-76)-aminoluciferin): ~50-fold greater than the S/B for Ub-AMC; S/B against the S/B for Ub-rhodamine110, UCHL3 0.01 nM (Ub(1-76)-aminoluciferin): ~200-fold greater than the S/B for Ub-rhodamine110; signal to background (S/B) ratio, bioluminescence, 100 nM substrate, 32 pM UCHL3 (Ub(1-76)-aminoluciferin): the same S/B ratio of 1000 was obtained with 100 nM Ub-amino-luciferin and UCHL3 at a concentration of 32 pM; signal to background (S/B) ratio, bioluminescence, 20 uM substrate, 40 nM UCHL3 [1]: a signal to background (S/B) ratio of ~1000 was obtained

B9: SENP1 (protein)
chain: EFPEITEEMEKEIKNVFRNGNQDEVLSEAFRLTITRKDIQTLNHLNWLNDEIINFYMNMLMERSKEKGLPSVHAFNTFFFTKLKTAGYQAVKRWTKKVDVFSVDILLVPIHLGVHWCLAVVDFRKKNITYYDSMGGINNEACRILLQYLKQESIDKKRKEFDTNGWQLFSKKSQEIPQQMNGSDCGMFACKYADCITKDRPINFTQQHMPYFRKRMVWEILHRKLL
For B9, which “luminescence signal (S/B), enzyme 200 pM” value [4] is on record?
The value was “SENP1, SENP2, and SENP6 (200 pM) on the other hand gave strong signals with hSUMO2-amino-luciferin”.

B10: SENP2 (sentrin-specific protease 2) (protein)
chain: DLLELTEDMEKEISNALGHGPQDEILSSAFKLRITRGDIQTLKNYHWLNDEVINFYMNLLVERNKKQGYPALHVFSTFFYPKLKSGGYQAVKRWTKGVNLFEQEIILVPIHRKVHWSLVVIDLRKKCLKYLDSMGQKGHRICEILLQYLQDESKTKRNSDLNLLEWTHHSMKPHEIPQQLNGSDCGMFTCKYADYISRDKPITFTQHQMPLFRKKMVWEILHQQLL
How did the “luminescence signal (S/B), enzyme 200 pM” value [1] turn out when B10 was run?
The value was “Z-Arg-Leu-Arg-Gly-Gly (SEQ ID NO: 1)-amino-luciferin also gave signals with SENP2 and SENP6 (200 pM)”.

And the “luminescence signal (S/B), enzyme 200 pM” value [4]?
The value was “SENP1, SENP2, and SENP6 (200 pM) on the other hand gave strong signals with hSUMO2-amino-luciferin”.

B11: AMSH (associated molecule with the SH3 domain of STAM) (protein)
chain: MSDHGDVSLPPEDRVRALSQLGSAVEVNEDIPPRRYFRSGVEIIRMASIYSEEGNIEHAFILYNKYITLFIEKLPKHRDYKSAVIPEKKDTVKKLKEIAFPKAEELKAELLKRYTKEYTEYNEEKKKEAEELARNMAIQQELEKEKQRVAQQKQQQLEQEQFHAFEEMIRNQELEKERLKIVQEFGKVDPGLGGPLVPDLEKPSLDVFPTLTVSSIQPSDCHTTVRPAKPPVVDRSLKPGALSNSESIPTIDGLRHVVVPGRLCPQFLQLASANTARGVETCGILCGKLMRNEFTITHVLIPKQSAGSDYCNTENEEELFLIQDQQGLITLGWIHTHPTQTAFLSSVDLHTHCSYQMMLPESVAIVCSPKFQETGFFKLTDHGLEEISSCRQKGFHPHSKDPPLFCSCSHVTVVDRAVTITDLR
How did the Signal to Background, luminescence, DUB 10 nM [1] turn out when B11 was run?
The Signal to Background, luminescence, DUB 10 nM was 1.4 S/B.

B12: USP2core (the common catalytic core domain of the two isoforms of USP2, USP2a and USP2b) (protein)
chain: NSKSAQGLAGLRNLGNTCFMNSILQCLSNTRELRDYCLQRLYMRDLHHGSNAHTALVEEFAKLIQTIWTSSPNDVVSPSEFKTQIQRYAPRFVGYNQQDAQEFLRFLLDGLHNEVNRVTLRPKSNPENLDHLPDDEKGRQMWRKYLEREDSRIGDLFVGQLKSSLTCTDCGYCSTVFDPFWDLSLPIAKRGYPEVTLMDCMRLFTKEDVLDGDEKPTCCRCRGRKRCIKKFSIQRFPKILVLHLKRFSESRIRTSKLTTFVNFPLRDLDLREFASENTNHAVYNLYAVSNHSGTTMGGHYTAYCRSPGTGEWHTFNDSSVTPMSSSQVRTSDAYLLFYELASPPSRM
With B12 as the protein, how does the “S/B against the S/B for both Ub-AMC and Ub-Rhodamine110, enzyme 0.5 nM” value (Ub(1-76)-aminoluciferin) read?
The value was “increased by ~100-fold relative to the S/B for both Ub-AMC and Ub-Rhodamine110”.
